Assays:
Assay type in all cases: physicochemical
[1] = Rheological properties of pH adjusted peptide solutions and hydrogels (stress/frequency sweep)
Protocol: Based on the visual observation of the effect of pH level on the properties of the peptide solutions, the effect on the rheological properties of the peptide solutions after adjusting their pH level to 3.4 (PuraMatrix® and KLD12) or 3.7 (IEIK13) was evaluated. If the pH levels of peptide solutions are higher than 3.5 (PuraMatrix® and KLD12) or 3.7 (IEIK13), the peptide solution began phase separation becoming cloudy. The rheological properties of PuraMatrix®, KLD12 and IEIK13 solutions were higher at pH 3.4. The results are shown in FIG. 2 for KLD12 1%, FIG. 3 for IEIK13 1%, and FIGS. 4-5 for PuraMatrix® 1% and 2.5%, respectively. Stress sweep tests were performed at 10 rad/s. Frequency sweep tests were performed at 1 Pa.
Based on the results of the effect on the rheological properties of the peptide solutions after adjusting their pH level to 3.4 (PuraMatrix® and KLD12) or 3.7 (IEIK13), the effect on the rheological properties of the peptide solutions at various pH levels was evaluated. […] The rheological properties of peptides were evaluated at various concentrations using a rheometer (DHR-1, TA Instruments) with 20 mm plates. The results are shown in FIG. 6A for PuraMatrix® 2.5% solution and FIG. 6B for IEIK13 1.5% solution, respectively. Frequency sweep tests were performed from 1 rad/sec to 10 rad/sec at 1 Pa and the storage modulus at 1 rad/sec was selected for data.
Based on the results of the effect on the rheological properties of the peptide solutions after adjusting their pH level, the effect on the rheological properties of the peptide hydrogels at various pH after DMEM treatment was evaluated and compared to the effect on the rheological properties of the peptide solutions at various pH before DMEM treatment. […] The results are shown in FIGS. 7A-7B for PuraMatrix® and FIGS. 8A-8B for IEIK (SEQ ID NO: 5), respectively. Frequency sweep tests were performed from 1 rad/sec to 10 rad/sec at 1 Pa and the storage modulus at 1 rad/sec was selected for data.

[2] = pH and appearance of 2.5% peptide solutions after adding 0.1 N NaOH
Protocol: To adjust the pH level of the peptide solutions by way of example, 0.1 N NaOH was added to 2 mL of 2.5% peptide solutions and their pH and appearance were measured.

[3] = Appearance of 1.5% peptide solutions with various salts at room temperature; settings: for Appearance: room temperature
Protocol: The effect of salt ionic strength level on the properties of peptide solutions was evaluated to identify optimized salt ionic strength levels for the peptides as described herein. Increasing the salt ionic strength level of PuraMatrix® and other peptides may generally improve its function and mechanical strength for various clinical applications. To adjust the salt ionic strength of the peptide solutions by way of example, various salt buffer solutions including NaCl, KCl, MgCl2, CaCl2 and DPBS (10×) were added to 2 mL of 1.5% peptide solutions.

[4] = 0.1 N NaOH 0 μL/mL added in 2.5% solution, conc. 2.5%
[5] = 0.1 N NaOH 50 μL/mL added in 2.5% solution, conc. 2.38%
[6] = 0.1 N NaOH 100 μL/mL added in 2.5% solution, conc. 2.27%
[7] = pH increase up to approximately 3.5 or less with 0.1 N NaOH, 2.5% solutions

## Arg-Ala-Asp-Ala-Arg-Ala-Asp-Ala-Arg-Ala-Asp-Ala-Arg-Ala-Asp-Ala [PuraMatrix ®]
[1]; PuraMatrix 2.5% solution, IEIK13 1.5% solution, storage modulus at 1 rad/sec
  rheological property of solutions at various pH levels: increases with pH adjustment up to 3.4
[1]; after DMEM treatment, storage modulus at 1 rad/sec
  rheological property of hydrogels after DMEM treatment at various pH: increases with pH adjustment up to 3.4
[1]; at pH 3.4 (IEIK13 adjusted to 3.7), KLD12 1%, IEIK13 1%, PuraMatrix 1% and 2.5%
  rheological properties of solutions after pH adjustment: higher
[2]; [4]
  Appearance: Clear, thick gel
  Peptide solution pH: 2.2
[2]; [5]
  Appearance: Clear, thick gel
  Peptide solution pH: 2.3
[2]; [6]
  Appearance: Clear, thick gel
  Peptide solution pH: 2.4
[2]; 0.1 N NaOH 150 μL/mL added in 2.5% solution, conc. 2.17%
  Peptide solution pH: 2.7
[2]; 0.1 N NaOH 200 μL/mL added in 2.5% solution, conc. 2.08%
  Peptide solution pH: 2.9
[2]; 0.1 N NaOH 250 μL/mL added in 2.5% solution, conc. 2.0%
  Peptide solution pH: 3.2
[2]; 0.1 N NaOH 275 μL/mL added in 2.5% solution, conc. 1.96%
  Peptide solution pH: 3.4
[2]; 0.1 N NaOH 300 μL/mL added in 2.5% solution, conc. 1.92%
  Peptide solution pH: 3.6
[2]; 0.1 N NaOH 350 μL/mL added in 2.5% solution, conc. 1.85%
  Peptide solution pH: 4.5
[2]; last line per peptide, NaOH volume and conc. not given
  Peptide solution pH: 7.0
[2]; [7]
  apparent stiffness on pH increase: increased
  color of solution on pH increase: did not change the clear color
[3]; CaCl2 0 M, ionic strength 0 M, PuraMatrix 1.5%
  Appearance: Clear, thick gel
[3]; CaCl2 0.05 M, ionic strength 0.15 M, PuraMatrix 1.48%
  Appearance: Clear, thick, stiffer gel
[3]; CaCl2 0.1 M, ionic strength 0.3 M, PuraMatrix 1.45%
  Appearance: Clear, thick, stiffer gel
[3]; CaCl2 0.15 M, ionic strength 0.45 M, PuraMatrix 1.43%
  Appearance: Clear, thick, stiffer gel
[3]; CaCl2 0.2 M, ionic strength 0.6 M, PuraMatrix 1.4%
  Appearance: Clear, thick, stiffer gel
[3]; CaCl2 0.25 M, ionic strength 0.75 M, PuraMatrix 1.38%
  Appearance: Clear, thick, stiffer gel
[3]; CaCl2 0.3 M, ionic strength 0.9 M, PuraMatrix 1.35%
  Appearance: Clear, thick, stiffer gel
[3]; CaCl2 0.35 M, ionic strength 1.05 M, PuraMatrix 1.32%
  Appearance: Clear, thick, stiffer gel
[3]; CaCl2 0.383 M, ionic strength 1.15 M, PuraMatrix 1.31%
  Appearance: Clear, thick, stiffer gel
[3]; CaCl2 0.4 M, ionic strength 1.2 M, PuraMatrix 1.3%
  Appearance: Slightly cloudy, thick, stiffer gel
[3]; CaCl2 0.417 M, ionic strength 1.25 M, PuraMatrix 1.29%
  Appearance: Slightly cloudy, brittle gel
[3]; CaCl2 0.433 M, ionic strength 1.3 M, PuraMatrix 1.28%
  Appearance: Cloudy, phase-separated
[3]; DPBS (pH 3.2) 0 M, ionic strength 0 M, PuraMatrix 1.5%
  Appearance: Clear, thick gel
[3]; DPBS (pH 3.2) 0.15 M, ionic strength 0.15 M, PuraMatrix 1.35%
  Appearance: Clear, thick, stiffer gel
[3]; DPBS (pH 3.2) 0.3 M, ionic strength 0.3 M, PuraMatrix 1.2%
  Appearance: Clear, thick, stiffer gel
[3]; DPBS (pH 3.2) 0.45 M, ionic strength 0.45 M, PuraMatrix 1.05%
  Appearance: Clear, thick, stiffer gel
[3]; DPBS (pH 3.2) 0.6 M, ionic strength 0.6 M, PuraMatrix 0.9%
  Appearance: Clear, thick, stiffer gel
[3]; DPBS (pH 3.2) 0.75 M, ionic strength 0.75 M, PuraMatrix 0.75%
  Appearance: Clear, thick, stiffer gel
[3]; DPBS (pH 3.2) 0.9 M, ionic strength 0.9 M, PuraMatrix 0.6%
  Appearance: Clear, thick, stiffer gel
[3]; DPBS (pH 3.2) 0.95 M, ionic strength 0.95 M, PuraMatrix 0.55%
  Appearance: Slightly cloudy, brittle gel
[3]; DPBS (pH 3.2) 1.0 M, ionic strength 1.0 M, PuraMatrix 0.5%
  Appearance: Cloudy, phase-separated
[3]; KCl 0 M, ionic strength 0 M, PuraMatrix 1.5%
  Appearance: Clear, thick gel
[3]; KCl 0.15 M, ionic strength 0.15 M, PuraMatrix 1.43%
  Appearance: Clear, thick, stiffer gel
[3]; KCl 0.3 M, ionic strength 0.3 M, PuraMatrix 1.35%
  Appearance: Clear, thick, stiffer gel
[3]; KCl 0.45 M, ionic strength 0.45 M, PuraMatrix 1.27%
  Appearance: Clear, thick, stiffer gel
[3]; KCl 0.6 M, ionic strength 0.6 M, PuraMatrix 1.2%
  Appearance: Clear, thick, stiffer gel
[3]; KCl 0.75 M, ionic strength 0.75 M, PuraMatrix 1.13%
  Appearance: Clear, thick, stiffer gel
[3]; KCl 0.9 M, ionic strength 0.9 M, PuraMatrix 1.05%
  Appearance: Clear, thick, stiffer gel
[3]; KCl 0.95 M, ionic strength 0.95 M, PuraMatrix 1.03%
  Appearance: Clear, thick, stiffer gel
[3]; KCl 1.0 M, ionic strength 1.0 M, PuraMatrix 1.0%
  Appearance: Clear, thick, stiffer gel
[3]; KCl 1.05 M, ionic strength 1.05 M, PuraMatrix 0.98%
  Appearance: Slightly cloudy, thick, stiffer gel
[3]; KCl 1.1 M, ionic strength 1.1 M, PuraMatrix 0.95%
  Appearance: Slightly cloudy, brittle gel
[3]; KCl 1.15 M, ionic strength 1.15 M, PuraMatrix 0.93%
  Appearance: Cloudy, phase-separated
[3]; MgCl2 0 M, ionic strength 0 M, PuraMatrix 1.5%
  Appearance: Clear, thick gel
[3]; MgCl2 0.05 M, ionic strength 0.15 M, PuraMatrix 1.48%
  Appearance: Clear, thick, stiffer gel
[3]; MgCl2 0.1 M, ionic strength 0.3 M, PuraMatrix 1.45%
  Appearance: Clear, thick, stiffer gel
[3]; MgCl2 0.15 M, ionic strength 0.45 M, PuraMatrix 1.43%
  Appearance: Clear, thick, stiffer gel
[3]; MgCl2 0.2 M, ionic strength 0.6 M, PuraMatrix 1.4%
  Appearance: Clear, thick, stiffer gel
[3]; MgCl2 0.25 M, ionic strength 0.75 M, PuraMatrix 1.38%
  Appearance: Clear, thick, stiffer gel
[3]; MgCl2 0.3 M, ionic strength 0.9 M, PuraMatrix 1.35%
  Appearance: Clear, thick, stiffer gel
[3]; MgCl2 0.35 M, ionic strength 1.05 M, PuraMatrix 1.32%
  Appearance: Clear, thick, stiffer gel
[3]; MgCl2 0.383 M, ionic strength 1.15 M, PuraMatrix 1.31%
  Appearance: Clear, thick, stiffer gel
[3]; MgCl2 0.4 M, ionic strength 1.2 M, PuraMatrix 1.3%
  Appearance: Slightly cloudy, thick, stiffer gel
[3]; MgCl2 0.417 M, ionic strength 1.25 M, PuraMatrix 1.29%
  Appearance: Slightly cloudy, brittle gel
[3]; MgCl2 0.433 M, ionic strength 1.3 M, PuraMatrix 1.28%
  Appearance: Cloudy, phase-separated
[3]; NaCl 0 M, ionic strength 0 M, PuraMatrix 1.5%
  Appearance: Clear, thick gel
[3]; NaCl 0.15 M, ionic strength 0.15 M, PuraMatrix 1.43%
  Appearance: Clear, thick, stiffer gel
[3]; NaCl 0.3 M, ionic strength 0.3 M, PuraMatrix 1.35%
  Appearance: Clear, thick, stiffer gel
[3]; NaCl 0.45 M, ionic strength 0.45 M, PuraMatrix 1.27%
  Appearance: Clear, thick, stiffer gel
[3]; NaCl 0.6 M, ionic strength 0.6 M, PuraMatrix 1.2%
  Appearance: Clear, thick, stiffer gel
[3]; NaCl 0.75 M, ionic strength 0.75 M, PuraMatrix 1.13%
  Appearance: Clear, thick, stiffer gel
[3]; NaCl 0.8 M, ionic strength 0.8 M, PuraMatrix 1.10%
  Appearance: Clear, thick, stiffer gel
[3]; NaCl 0.85 M, ionic strength 0.85 M, PuraMatrix 1.08%
  Appearance: Clear, thick, stiffer gel
[3]; NaCl 0.9 M, ionic strength 0.9 M, PuraMatrix 1.05%
  Appearance: Slightly cloudy, brittle gel
[3]; NaCl 0.95 M, ionic strength 0.95 M, PuraMatrix 1.03%
  Appearance: Cloudy, phase-separated
[3]; NaCl 1.0 M, ionic strength 1.0 M, PuraMatrix 1.0%
  Appearance: Cloudy, phase-separated
[3]; up to the ionic strength at which solutions stay clear
  apparent stiffness on salt ionic strength increase: increased

Source: patent US20170173105A1, “AUTOASSEMBLING PEPTIDES FOR THE TREATMENT OF PULMONARY LEAKAGE” (3-D MATRIX, LTD., priority 2014, published 2017)
